Consider 167 variants from the RNAGym collection of RNA variant scans (doi:10.7554/elife.90254).

The labels stand for the following.
B1: OR4K15 (parent)
chain: GUUAACGGUCAUAGGCCAUGGAAACUAGGAGCACCAUUUCGCUGCCAGUGAAGAAAUGAACAAAGAAAAUCUGGGCCAGGCAGGCAUCAAAAGAAAUAGUCUUGCGCUCAACCAGAAAGUCUGUAAUCAUUUUAAGGGUA

The data set covers variants of B1. The data set can be described thus: self-cleavage, relative activity (ratio to wild type); higher = more cleavage; in vitro, sequencing; the parent is a self-cleaving ribozyme.
On to A47G G74A, for which the self-cleavage was determined as 0.21.
In the case of A33C U122C, the self-cleavage was found to be 1.09.
As to A33U C76G, the self-cleavage turned out to be 0.17.
Take U102C U122C: the self-cleavage was found to be 1.24.
The result for A63G U120A reads 0.94; that for A96G A135G, 1.91.
The result for G44A U108C reads 0.01; that for A24G U122G, 2.31.
For the variant A47U A135C, the self-cleavage was found to be 1.32.
For A63U A89C, the self-cleavage came out at 1.22.
The result for A23G U120C reads 0.96.
The result for A33G A98U reads 1.19; that for U38A A78U, 0.39.
With U49C G75A the figure was 0.04.
As to A24C A114G, the self-cleavage stood at 0.97.
As for U39A A78C, the self-cleavage came out at 0.23.
With A54U A78G the figure was 0.25.
The result for A111G G136U reads 0.02.
On to U102C C113U, for which the self-cleavage was 0.33.
The result for U102C U103C reads 0.21; that for A18U C128U, 1.55; that for A23G A54G, 0.6.
With U37A A90G the figure was 0.73; with C10U U103C, 1.16.
For U97C A118U, the self-cleavage turned out to be 1.62.
Turning to A24U U87A, the self-cleavage came out at 1.8.
In the case of U38C U102C, the self-cleavage amounted to 1.91.
As for U37C U43C, the self-cleavage amounted to 2.16.
As to G73A U122A, the self-cleavage is 0.15.
The result for U39C U57A reads 0.92; that for U38C A114G, 0.75.
With U87A U133G the figure was 1.25.
The result for G7A G79A reads 0.11; that for U97A U103A, 0.18; that for U43A U70G, 1.12.
In the case of G15A U131C, the self-cleavage stood at 0.87.
The result for A27U G99A reads 0.6; that for U38A U87C, 1.56; that for A129G A135U, 1.54.
The result for A55G G93U reads 1.76; that for A62U U72C, 0.19; that for C25U U72A, 0.28.
The result for U9G A78G reads 0.26; that for U3C U38C, 0.98; that for A27G U87C, 1.02.
Consider C40A G65A, for which the self-cleavage was determined as 1.
With A64G A89G the figure was 1.49; with G7U U108C, 0.02.
The result for A62U A140G reads 0.67; that for A60U, 1.29; that for A110G A126G, 0.1.
With A64G A82G the figure was 0.35.
Turning to A54G A56C, the self-cleavage is 1.4.
As to C77U U87C, the self-cleavage came to 1.31.
With U19A A52G the figure was 1.35.
Consider G15A A54G, for which the self-cleavage came to 1.41.
Take A89U A116U: the self-cleavage was 0.46.
With A69G A78G, the self-cleavage is 0.27.
For the variant G93A U102A, the self-cleavage was 2.2.
With U97A U130C, the self-cleavage was determined as 1.59.
In the case of C107A U108C, the self-cleavage came out at 0.02.
Take A23G A36G: the self-cleavage worked out at 1.43.
The result for U38C G41A reads 1.95.
With U49G A66G the figure was 1.77; with G31A A117G, 1.42; with U37C A111U, 0.15.
With G7A U12C the figure was 1.33.
As for A22U A27U, the self-cleavage was determined as 2.02.
The result for U43C A135U reads 0.71.
As for C25U U87C, the self-cleavage was 1.11.
With A36G A98C the figure was 2.03; with U37C U103A, 0.5.
In the case of A78G A126C, the self-cleavage stood at 0.09.
As for U2C A66U, the self-cleavage was 0.2.
The result for A11U A91G reads 0.78; that for A18C A117G, 1.24.
For A11U A23G, the self-cleavage amounted to 0.87.
The result for C85U reads 1.15; that for U57C A60U, 1.78.
The result for A91G U122G reads 2.58.
A36G G83U: the self-cleavage worked out at 0.41.
Take U2C U39C: the self-cleavage was determined as 0.7.
On to A30C A59G, for which the self-cleavage is 0.35.
With A59G A118U the figure was 0.74; with A33U U124C, 1.22.
With G7A A92U the figure was 1.72; with U43C U87C, 0.35; with U43C U87A, 1.94.
Turning to U12A A60C, the self-cleavage is 1.18.
Take A51C A117U: the self-cleavage stood at 1.28.
The result for G31U A36G reads 2.23; that for A111G U122C, 0.01.
The result for A59U A111G reads 0.02; that for A68G A114U, 0.04; that for A52G A116G, 0.91.
Consider A13C A95G, for which the self-cleavage came out at 1.32.
On to A22U C121A, for which the self-cleavage was found to be 2.6.
For U132C A134G, the self-cleavage amounted to 1.05.
With C32U A78G the figure was 0.53; with C32U A78U, 0.38.
With A67G U133C the figure was 1.12; with A125G U132A, 0.32; with U72G A135G, 0.22.
With A78G U124C the figure was 0.14; with A22U A36U, 1.53.
C16U A68G: the self-cleavage came out at 1.42.
The result for A18G A125G reads 0.94; that for G28A A110G, 0.17; that for A82U A135G, 0.22.
The result for A55G C85U reads 1.27.
For A4C U100C, the self-cleavage amounted to 1.19.
The result for U2A U39C reads 1.26; that for C6U A64G, 1.46.
G41A A62G: the self-cleavage was determined as 2.53.
With A98U U120C the figure was 1.65; with A13G A135G, 0.79.
With G21A A140G the figure was 1.48; with U19G A69U, 0.96.
The result for A118U U130C reads 0.4; that for U3C A92G, 1.48.
With A78G A91G, the self-cleavage was determined as 0.13.
On to A52U A63G, for which the self-cleavage is 1.73.
Consider G14U A66G, for which the self-cleavage is 0.9.
Consider A68G C85U, for which the self-cleavage is 1.49.
With A51U A78U the figure was 0.36; with A47C U49C, 1.24.
The result for U9C A129C reads 0.68; that for A118G A126G, 0.83.
The result for A91G A117U reads 0.69; that for A27U G83A, 1.31; that for U9A A90G, 1.23.
Consider A60U U127A, for which the self-cleavage stood at 2.36.
With A11U A110U the figure was 1.19.
With A54C A95G, the self-cleavage was found to be 2.18.
With U49C G104A the figure was 0.04.
As for A92G A116C, the self-cleavage was determined as 0.09.
For the variant A92G A134G, the self-cleavage is 0.98.
As to A69G A134G, the self-cleavage was found to be 1.17.
The result for A30G C71U reads 0.62; that for U102A A135G, 1.02.
The result for A30G U130C reads 0.6; that for A51G A89U, 1.41; that for U49A A117G, 0.49.
U57A U108C: the self-cleavage is 0.02.
With U100C U132A the figure was 1.03; with A36G A56G, 1.3.
The result for A4C A62U reads 0.93; that for A89U A114G, 0.49.
The result for A78G U127G reads 0.27; that for U3C A36G, 1.39; that for A51G U139A, 1.48.
On to G8A U120C, for which the self-cleavage stood at 1.57.
With A56U A59G the figure was 1.62; with A51U G58U, 1.45; with U39C A69G, 1.37.
As to A51G U108C, the self-cleavage came out at 0.02.
The result for A5U A126U reads 0; that for A27G U127C, 0.56.
As to A22G A59C, the self-cleavage is 1.17.
As to G1U A69U, the self-cleavage is 1.22.
With G74U C113A the figure was 0.04; with A18U U72C, 0.1.
The result for A82G U127A reads 0.58; that for A125G U127C, 0.27; that for C16A U127C, 0.13.
With A5G A52C the figure was 1.39; with U57A U102C, 0.78.
